Measurements as given in the supplement of paper PMC10567573.

B1: TRIM29 (parent)
chain: FAEKGELRKSIFSESRKPTVSIME
B2: KLHDC10 (parent)
chain: FGGTGIPFGESNGNGVHVCNVKYK

Variants of: B1
Assay: protein stability index of a GFP-peptide fusion (GPS, HEK-293T) (PSI 1-6); higher = more stable
Settings: c terminus: a fixed tail appended
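Also: lentivirally expressed fusions sorted by FACS into six bins by GFP to DsRed ratio, PSI derived from sequencing read proportions per bin multiplied by bin number.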

Variant	protein stability index
YAEKGELRKSIFSESRKPTVSIME [F1Y]	1.45
SAEKGELRKSIFSESRKPTVSIME [F1S]	3.58
DAEKGELRKSIFSESRKPTVSIME [F1D]	4.75
CAEKGELRKSIFSESRKPTVSIME [F1C]	2.68
TAEKGELRKSIFSESRKPTVSIME [F1T]	3.95
AAEKGELRKSIFSESRKPTVSIME [F1A]	4.35
PAEKGELRKSIFSESRKPTVSIME [F1P]	3.9
NAEKGELRKSIFSESRKPTVSIME [F1N]	4.34
QAEKGELRKSIFSESRKPTVSIME [F1Q]	3.97
EAEKGELRKSIFSESRKPTVSIME [F1E]	4.13
RAEKGELRKSIFSESRKPTVSIME [F1R]	3.66
IAEKGELRKSIFSESRKPTVSIME [F1I]	3.63
VAEKGELRKSIFSESRKPTVSIME [F1V]	3.94
WAEKGELRKSIFSESRKPTVSIME [F1W]	2.6
KAEKGELRKSIFSESRKPTVSIME [F1K]	4.27
LAEKGELRKSIFSESRKPTVSIME [F1L]	3.14
HAEKGELRKSIFSESRKPTVSIME [F1H]	4.29
GAEKGELRKSIFSESRKPTVSIME [F1G]	3.89
MAEKGELRKSIFSESRKPTVSIME [F1M]	3.73
FAEKNELRKSIFSESRKPTVSIME [G5N]	1.93
FAEKCELRKSIFSESRKPTVSIME [G5C]	1.15
FAEKIELRKSIFSESRKPTVSIME [G5I]	2.31
FAEKDELRKSIFSESRKPTVSIME [G5D]	1.8
FAEKHELRKSIFSESRKPTVSIME [G5H]	2.3

Variant	protein stability index
FAEKPELRKSIFSESRKPTVSIME [G5P]	2.46
FAEKVELRKSIFSESRKPTVSIME [G5V]	1.66
FAEKMELRKSIFSESRKPTVSIME [G5M]	1.72
FAEKSELRKSIFSESRKPTVSIME [G5S]	2.11
FAEKEELRKSIFSESRKPTVSIME [G5E]	1.69
FAEKWELRKSIFSESRKPTVSIME [G5W]	2.04
FAEKFELRKSIFSESRKPTVSIME [G5F]	2.17
FAEKAELRKSIFSESRKPTVSIME [G5A]	1.99
FAEKYELRKSIFSESRKPTVSIME [G5Y]	2.53
FAEKKELRKSIFSESRKPTVSIME [G5K]	1.78
FAEKTELRKSIFSESRKPTVSIME [G5T]	1.64
FAEKRELRKSIFSESRKPTVSIME [G5R]	1.7
FAEKQELRKSIFSESRKPTVSIME [G5Q]	2.02
FAEKLELRKSIFSESRKPTVSIME [G5L]	2.37
FAEKGECRKSIFSESRKPTVSIME [L7C]	2.8
FAEKGEARKSIFSESRKPTVSIME [L7A]	2.25
FAFKGELRKSIFSESRKPTVSIME [E3F]	1.42
FAAKGELRKSIFSESRKPTVSIME [E3A]	3.08
FANKGELRKSIFSESRKPTVSIME [E3N]	2.29
FAPKGELRKSIFSESRKPTVSIME [E3P]	2.79
FAWKGELRKSIFSESRKPTVSIME [E3W]	1.83
FAIKGELRKSIFSESRKPTVSIME [E3I]	2.43
FACKGELRKSIFSESRKPTVSIME [E3C]	1.92
FADKGELRKSIFSESRKPTVSIME [E3D]	1.9

Variant	protein stability index
FASKGELRKSIFSESRKPTVSIME [E3S]	3.11
FAQKGELRKSIFSESRKPTVSIME [E3Q]	2.05
FAVKGELRKSIFSESRKPTVSIME [E3V]	1.15
FAYKGELRKSIFSESRKPTVSIME [E3Y]	1.88
FARKGELRKSIFSESRKPTVSIME [E3R]	2.27
FAMKGELRKSIFSESRKPTVSIME [E3M]	2.09
FALKGELRKSIFSESRKPTVSIME [E3L]	1.04
FATKGELRKSIFSESRKPTVSIME [E3T]	2.59
FAGKGELRKSIFSESRKPTVSIME [E3G]	2.95
FAKKGELRKSIFSESRKPTVSIME [E3K]	2.29
FAHKGELRKSIFSESRKPTVSIME [E3H]	1.66
FHEKGELRKSIFSESRKPTVSIME [A2H]	2.07
FDEKGELRKSIFSESRKPTVSIME [A2D]	3.76
FGEKGELRKSIFSESRKPTVSIME [A2G]	2.06
FREKGELRKSIFSESRKPTVSIME [A2R]	3.42
FWEKGELRKSIFSESRKPTVSIME [A2W]	2.74
FPEKGELRKSIFSESRKPTVSIME [A2P]	2.59
FEEKGELRKSIFSESRKPTVSIME [A2E]	3.35
FFEKGELRKSIFSESRKPTVSIME [A2F]	2.52
FCEKGELRKSIFSESRKPTVSIME [A2C]	1.66
FTEKGELRKSIFSESRKPTVSIME [A2T]	2.36
FLEKGELRKSIFSESRKPTVSIME [A2L]	2.38
FVEKGELRKSIFSESRKPTVSIME [A2V]	2.1
FKEKGELRKSIFSESRKPTVSIME [A2K]	3.44

Variant	protein stability index
FSEKGELRKSIFSESRKPTVSIME [A2S]	2.53
FNEKGELRKSIFSESRKPTVSIME [A2N]	2.91
FMEKGELRKSIFSESRKPTVSIME [A2M]	3.21
FIEKGELRKSIFSESRKPTVSIME [A2I]	1.89
FQEKGELRKSIFSESRKPTVSIME [A2Q]	3.44
FYEKGELRKSIFSESRKPTVSIME [A2Y]	2.88
FAEKGPLRKSIFSESRKPTVSIME [E6P]	2.78
FAEKGHLRKSIFSESRKPTVSIME [E6H]	2.38
FAEKGNLRKSIFSESRKPTVSIME [E6N]	1.36
FAEKGTLRKSIFSESRKPTVSIME [E6T]	1.56
FAEKGQLRKSIFSESRKPTVSIME [E6Q]	1.45
FAEKGYLRKSIFSESRKPTVSIME [E6Y]	1.84
FAEKGCLRKSIFSESRKPTVSIME [E6C]	2.57
FAEKGALRKSIFSESRKPTVSIME [E6A]	1.77
FAEKGMLRKSIFSESRKPTVSIME [E6M]	1.78
FAEKGFLRKSIFSESRKPTVSIME [E6F]	2.65
FAEKGSLRKSIFSESRKPTVSIME [E6S]	1.8
FAEKGRLRKSIFSESRKPTVSIME [E6R]	1.64
FAEKGGLRKSIFSESRKPTVSIME [E6G]	1.47
FAEKGVLRKSIFSESRKPTVSIME [E6V]	1.93
FAEKGDLRKSIFSESRKPTVSIME [E6D]	1.44
FAEKGWLRKSIFSESRKPTVSIME [E6W]	2.02
FAEKGKLRKSIFSESRKPTVSIME [E6K]	1.85
FAEKGLLRKSIFSESRKPTVSIME [E6L]	2.78

Variant	protein stability index
FAEKGILRKSIFSESRKPTVSIME [E6I]	1.82
FAEVGELRKSIFSESRKPTVSIME [K4V]	2.38
FAETGELRKSIFSESRKPTVSIME [K4T]	2.14
FAEAGELRKSIFSESRKPTVSIME [K4A]	1.87
FAEMGELRKSIFSESRKPTVSIME [K4M]	1.39
FAEIGELRKSIFSESRKPTVSIME [K4I]	2.1
FAECGELRKSIFSESRKPTVSIME [K4C]	2.24
FAEPGELRKSIFSESRKPTVSIME [K4P]	1.8
FAELGELRKSIFSESRKPTVSIME [K4L]	2.38
FAEHGELRKSIFSESRKPTVSIME [K4H]	1.75
FAEGGELRKSIFSESRKPTVSIME [K4G]	2.02
FAEFGELRKSIFSESRKPTVSIME [K4F]	1.77
FAEQGELRKSIFSESRKPTVSIME [K4Q]	1.71
FAERGELRKSIFSESRKPTVSIME [K4R]	2.08
FAENGELRKSIFSESRKPTVSIME [K4N]	2.53
FAEDGELRKSIFSESRKPTVSIME [K4D]	2.06
FAESGELRKSIFSESRKPTVSIME [K4S]	1.8
FAEWGELRKSIFSESRKPTVSIME [K4W]	3.24
FAEEGELRKSIFSESRKPTVSIME [K4E]	2.33
FAEYGELRKSIFSESRKPTVSIME [K4Y]	2.16

Variants of: B2
Assay: as above
Settings: c terminus: a fixed tail appended

Variant	protein stability index
FGGTGIPFGESNGNGVHVCNVKYQ [K24Q]	2
FGGTGIPFGESNGNGVHVCNVKYP [K24P]	2.11
FGGTGIPFGESNGNGVHVCNVKYM [K24M]	2.42
FGGTGIPFGESNGNGVHVCNVKYH [K24H]	1.57
FGGTGIPFGESNGNGVHVCNVKYI [K24I]	1.42
FGGTGIPFGESNGNGVHVCNVKYC [K24C]	1.75
FGGTGIPFGESNGNGVHVCNVKYW [K24W]	2.61
FGGTGIPFGESNGNGVHVCNVKYD [K24D]	2.4
FGGTGIPFGESNGNGVHVCNVKYN [K24N]	1.82
FGGTGIPFGESNGNGVHVCNVKYA [K24A]	1.23
FGGTGIPFGESNGNGVHVCNVKYS [K24S]	1.66
FGGTGIPFGESNGNGVHVCNVKYT [K24T]	3.32
FGGTGIPFGESNGNGVHVCNVKYE [K24E]	1.99
FGGTGIPFGESNGNGVHVCNVKYG [K24G]	1.6
FGGTGIPFGESNGNGVHVCNVKYY [K24Y]	1.88
FGGTGIPFGESNGNGVHVCNVKYV [K24V]	1.66
FGGTGIPFGESNGNGVHVCNVKYF [K24F]	1
FGGTGIPFGESNGNGVHVCNVKYL [K24L]	2.06
FGGTGIPFGESNGNGVHVCNVKYR [K24R]	1.63
FGGTGIPFGESNGNGVHVCNKKYK [V21K]	1.98
FGGTGIPFGESNGNGVHVCNPKYK [V21P]	1.92
FGGTGIPFGESNGNGVHVCNFKYK [V21F]	1.82
FGGTGIPFGESNGNGVHVCNIKYK [V21I]	2.78
FGGTGIPFGESNGNGVHVCNYKYK [V21Y]	2.5

Variant	protein stability index
FGGTGIPFGESNGNGVHVCNWKYK [V21W]	1.86
FGGTGIPFGESNGNGVHVCNQKYK [V21Q]	2.14
FGGTGIPFGESNGNGVHVCNHKYK [V21H]	1.7
FGGTGIPFGESNGNGVHVCNTKYK [V21T]	2.17
FGGTGIPFGESNGNGVHVCNSKYK [V21S]	2.38
FGGTGIPFGESNGNGVHVCNNKYK [V21N]	2.54
FGGTGIPFGESNGNGVHVCNGKYK [V21G]	1.78
FGGTGIPFGESNGNGVHVCNLKYK [V21L]	1.58
FGGTGIPFGESNGNGVHVCNMKYK [V21M]	1.95
FGGTGIPFGESNGNGVHVCNRKYK [V21R]	1.72
FGGTGIPFGESNGNGVHVCNVCYK [K22C]	1.24
FGGTGIPFGESNGNGVHVCNVSYK [K22S]	1.29
FGGTGIPFGESNGNGVHVCNVHYK [K22H]	2.07
FGGTGIPFGESNGNGVHVCNVWYK [K22W]	2.1
FGGTGIPFGESNGNGVHVCNVYYK [K22Y]	1.95
FGGTGIPFGESNGNGVHVCNVTYK [K22T]	1.98
FGGTGIPFGESNGNGVHVCNVQYK [K22Q]	2.89
FGGTGIPFGESNGNGVHVCNVIYK [K22I]	1.83
FGGTGIPFGESNGNGVHVCNVLYK [K22L]	1.29
FGGTGIPFGESNGNGVHVCNVFYK [K22F]	1.63
FGGTGIPFGESNGNGVHVCNVMYK [K22M]	1.9
FGGTGIPFGESNGNGVHVCNVGYK [K22G]	1.98
FGGTGIPFGESNGNGVHVCNVEYK [K22E]	2.4
FGGTGIPFGESNGNGVHVCNVNYK [K22N]	1.8

Variant	protein stability index
FGGTGIPFGESNGNGVHVCNVDYK [K22D]	2.35
FGGTGIPFGESNGNGVHVCNVVYK [K22V]	2.24
FGGTGIPFGESNGNGVHVCNVRYK [K22R]	2.34
FGGTGIPFGESNGNGVHVCNVAYK [K22A]	2.53
FGGTGIPFGESNGNGVHVCNVPYK [K22P]	1.91
FGGTGIPFGESNGNGVHVCNVKIK [Y23I]	2.38
FGGTGIPFGESNGNGVHVCNVKHK [Y23H]	2.43
FGGTGIPFGESNGNGVHVCNVKCK [Y23C]	2.54
FGGTGIPFGESNGNGVHVCNVKKK [Y23K]	2.01
FGGTGIPFGESNGNGVHVCNVKWK [Y23W]	2.62
FGGTGIPFGESNGNGVHVCNVKEK [Y23E]	2.47
FGGTGIPFGESNGNGVHVCNVKMK [Y23M]	2.1
FGGTGIPFGESNGNGVHVCNVKSK [Y23S]	2.99
FGGTGIPFGESNGNGVHVCNVKVK [Y23V]	2.23
FGGTGIPFGESNGNGVHVCNVKQK [Y23Q]	2.28
FGGTGIPFGESNGNGVHVCNVKPK [Y23P]	2.41
FGGTGIPFGESNGNGVHVCNVKAK [Y23A]	2.76
FGGTGIPFGESNGNGVHVCNVKDK [Y23D]	3.3
FGGTGIPFGESNGNGVHVCNVKRK [Y23R]	2.17
FGGTGIPFGESNGNGVHVCNVKGK [Y23G]	2.04
FGGTGIPFGESNGNGVHVCNVKNK [Y23N]	2.49
FGGTGIPFGESNGNGVHVCNVKLK [Y23L]	2.07
FGGTGIPFGESNGNGVHVCNVKTK [Y23T]	2.14
FGGTGIPFGESNGNGVHVCNVKFK [Y23F]	2.03
